Molecular target: BSA (bovine serum albumin) (Bos taurus, UniProt P02769 P02769:25-607)
Assay: ELONA; plate assay on immobilized CaDNA-3-11T; no concentration-dependent signal with BSA; PBS-T, room temperature
Conditions: structure-switching stem-loop

BSA (bovine serum albumin), sequence (P02769 25-607, one chain of several): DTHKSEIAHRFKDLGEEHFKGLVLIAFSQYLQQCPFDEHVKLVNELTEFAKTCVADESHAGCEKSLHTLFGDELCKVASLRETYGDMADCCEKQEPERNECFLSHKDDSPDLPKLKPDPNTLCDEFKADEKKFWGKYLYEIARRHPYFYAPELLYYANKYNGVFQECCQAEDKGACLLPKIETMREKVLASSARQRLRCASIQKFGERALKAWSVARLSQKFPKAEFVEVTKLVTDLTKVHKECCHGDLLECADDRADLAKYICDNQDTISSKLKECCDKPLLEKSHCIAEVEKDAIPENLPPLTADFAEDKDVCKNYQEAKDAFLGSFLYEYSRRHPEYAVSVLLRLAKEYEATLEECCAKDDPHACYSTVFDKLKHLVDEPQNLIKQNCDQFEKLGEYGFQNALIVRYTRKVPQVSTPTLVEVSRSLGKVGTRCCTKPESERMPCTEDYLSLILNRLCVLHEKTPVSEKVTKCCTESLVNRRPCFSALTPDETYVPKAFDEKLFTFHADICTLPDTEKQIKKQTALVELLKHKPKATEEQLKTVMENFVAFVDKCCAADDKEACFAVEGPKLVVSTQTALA

B1: CaAp-3 (ssDNA)
DNA: GTTCGGCACTTGGGCCCTTTTCTGTGTCTTTCTGTGCCCTTAGATAGTATGTGCAATCA
- binding result: no binding
